How the values were obtained:
[1] = biological target: human insulin receptor B-isoform (human) (UniProt P06213); assay: SPA competition; ratio of the hIR-B column to the hIR-A column
[2] = biological target: human insulin receptor A-isoform (human) (UniProt P06213); assay: SPA competition against [125I]A14Tyr-insulin, solubilized hIR-A, analogue in yeast supernatant
[3] = biological target: human insulin receptor B-isoform (human) (UniProt P06213); assay: SPA competition against [125I]A14Tyr-insulin, solubilized hIR-B, analogue in yeast supernatant

Ratio B/A (relative hIR-B affinity over relative hIR-A affinity) [1]: 2.1
relative affinity [% of HI] [2]: 67 % of HI
relative affinity [% of HI] [3]: 140 % of HI
Substance: [A8H, B25H, B27E, desB30] human insulin (ligand)

From US20110294729A1, “Novel Insulin Analogues” (Novo Nordisk A/S, priority 2008, published 2011)
